Molecular target: T1, H3 protein ectodomain from vaccinia virus strain Lister with C-terminal 6-HIS tag, expressed from pET21a(+) (vaccinia virus strain Lister, UniProt P20497 1-269)
T1 chain: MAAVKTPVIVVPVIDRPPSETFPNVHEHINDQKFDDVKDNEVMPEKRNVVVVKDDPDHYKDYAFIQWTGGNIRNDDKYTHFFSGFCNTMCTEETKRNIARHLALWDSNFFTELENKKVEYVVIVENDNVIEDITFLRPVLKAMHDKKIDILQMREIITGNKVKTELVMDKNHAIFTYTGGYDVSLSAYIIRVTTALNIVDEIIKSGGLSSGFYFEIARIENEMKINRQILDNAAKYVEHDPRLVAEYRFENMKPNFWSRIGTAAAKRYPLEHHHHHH
Assay: Western blot on E. coli lysates (FIG. 12A)

B1: 130D67 human anti-H3L monoclonal antibody (antibody, V domains shown)
VH: EVQLVESGGGLVQPGRSLRLSCAASGFTFDDYAIHWVRQAPGKGLEWVSGISWNGRSIGYADSVKGRFTISRDNAKNSLYLQMNSLRAEDTALYYCAKDIGFYGSGSLDYWGQGTLVTVSS
VL: not shown
- binding result: binds

Reference: patent US20140186370A1 (Kyowa Kirin, published 2014)
